These results are taken from US20040146507A1 (Genentech, published 2004).

Assay [1] addresses T1, human CD11a (human, UniProt P20701 26-1170).
T1 construct: whole, on cells; On Jurkat T-cells or human peripheral blood mononuclear cells, as part of LFA-1; also called CD11a on Jurkat cells; alpha subunit of LFA-1
In words: FACScan, Jurkat cells. The procedure:
(§1) Aliquots of 10⁶ Jurkat T-cells were incubated with serial dilutions of humanized and control antibodies in PBS-0.1% BSA-10 mM sodium azide for 45 min at 4° C. The cells were washed and then incubated in fluorescein-conjugated goat anti-human F(ab′)₂ (Organon Teknika, Westchester, Pa.) for 45 min at 4° C. Cells were washed and analysed on a FACScan (Becton Dickinson, Mountain View, Calif.). 8×10³ cells were acquired by list mode and gated by forward light scatter versus side light scatter, thereby excluding dead cells and debris.
Target sequence in this assay (P20701 26-1170): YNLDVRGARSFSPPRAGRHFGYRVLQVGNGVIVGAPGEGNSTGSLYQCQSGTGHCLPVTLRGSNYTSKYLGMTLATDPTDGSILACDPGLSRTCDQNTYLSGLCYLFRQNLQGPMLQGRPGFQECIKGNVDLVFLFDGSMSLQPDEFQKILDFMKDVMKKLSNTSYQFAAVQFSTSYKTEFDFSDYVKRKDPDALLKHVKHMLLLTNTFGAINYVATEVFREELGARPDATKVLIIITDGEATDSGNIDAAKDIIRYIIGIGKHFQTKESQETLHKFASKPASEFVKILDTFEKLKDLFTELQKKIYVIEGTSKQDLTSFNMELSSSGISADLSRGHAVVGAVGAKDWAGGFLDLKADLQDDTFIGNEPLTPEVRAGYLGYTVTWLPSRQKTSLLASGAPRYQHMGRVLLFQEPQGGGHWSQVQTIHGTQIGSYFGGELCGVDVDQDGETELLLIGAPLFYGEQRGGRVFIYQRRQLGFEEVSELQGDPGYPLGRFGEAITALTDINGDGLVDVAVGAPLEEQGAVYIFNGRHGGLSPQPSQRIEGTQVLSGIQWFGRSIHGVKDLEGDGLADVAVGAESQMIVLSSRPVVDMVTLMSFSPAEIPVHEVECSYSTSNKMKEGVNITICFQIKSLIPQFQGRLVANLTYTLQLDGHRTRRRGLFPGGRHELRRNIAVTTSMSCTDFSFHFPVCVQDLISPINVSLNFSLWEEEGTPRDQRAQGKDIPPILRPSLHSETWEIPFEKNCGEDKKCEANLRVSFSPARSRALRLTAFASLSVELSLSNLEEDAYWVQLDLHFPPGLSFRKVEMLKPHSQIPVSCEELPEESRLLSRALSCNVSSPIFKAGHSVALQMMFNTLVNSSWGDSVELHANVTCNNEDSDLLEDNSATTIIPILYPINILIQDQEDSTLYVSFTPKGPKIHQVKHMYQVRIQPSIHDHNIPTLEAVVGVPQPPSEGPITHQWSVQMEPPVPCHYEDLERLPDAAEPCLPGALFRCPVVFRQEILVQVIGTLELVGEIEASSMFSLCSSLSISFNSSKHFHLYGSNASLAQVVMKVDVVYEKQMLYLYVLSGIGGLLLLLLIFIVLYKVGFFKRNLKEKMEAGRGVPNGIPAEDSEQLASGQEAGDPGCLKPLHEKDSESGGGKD

Assay [2] has as its target T2, rhesus CD11a (rhesus, UniProt H9Z8N3 26-1169).
T2 construct: whole, on cells; On rhesus peripheral blood lymphocytes or leukocytes; also called rhCD11a
T2 sequence: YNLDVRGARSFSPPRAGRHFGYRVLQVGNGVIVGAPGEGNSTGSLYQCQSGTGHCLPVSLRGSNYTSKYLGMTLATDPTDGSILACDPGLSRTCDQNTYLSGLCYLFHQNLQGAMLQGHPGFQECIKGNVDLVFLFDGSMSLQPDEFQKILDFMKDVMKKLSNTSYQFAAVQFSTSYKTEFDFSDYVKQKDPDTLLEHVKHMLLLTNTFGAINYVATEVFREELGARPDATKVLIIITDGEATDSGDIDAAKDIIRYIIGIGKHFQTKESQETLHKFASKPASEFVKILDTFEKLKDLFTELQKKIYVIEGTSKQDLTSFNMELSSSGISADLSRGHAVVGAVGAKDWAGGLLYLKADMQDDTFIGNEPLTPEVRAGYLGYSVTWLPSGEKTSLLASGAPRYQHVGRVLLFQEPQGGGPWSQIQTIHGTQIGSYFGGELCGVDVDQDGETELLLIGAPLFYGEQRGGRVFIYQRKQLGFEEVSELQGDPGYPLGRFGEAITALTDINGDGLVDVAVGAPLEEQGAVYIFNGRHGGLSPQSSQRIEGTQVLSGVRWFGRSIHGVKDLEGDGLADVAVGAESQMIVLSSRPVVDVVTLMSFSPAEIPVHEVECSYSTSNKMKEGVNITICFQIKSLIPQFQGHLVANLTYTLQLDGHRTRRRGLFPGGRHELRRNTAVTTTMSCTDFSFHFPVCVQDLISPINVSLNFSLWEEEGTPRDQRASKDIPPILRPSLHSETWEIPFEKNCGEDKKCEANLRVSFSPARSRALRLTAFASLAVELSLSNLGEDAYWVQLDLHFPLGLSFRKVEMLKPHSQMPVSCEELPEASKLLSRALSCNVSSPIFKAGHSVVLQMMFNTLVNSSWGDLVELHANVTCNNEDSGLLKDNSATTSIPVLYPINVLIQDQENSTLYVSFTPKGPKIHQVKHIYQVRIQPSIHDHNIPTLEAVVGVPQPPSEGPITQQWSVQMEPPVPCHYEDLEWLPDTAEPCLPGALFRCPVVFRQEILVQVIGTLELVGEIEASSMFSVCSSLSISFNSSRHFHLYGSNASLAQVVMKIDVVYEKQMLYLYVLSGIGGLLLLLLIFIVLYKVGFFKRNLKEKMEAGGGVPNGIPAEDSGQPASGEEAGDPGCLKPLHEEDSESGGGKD
In words: binding to rhesus CD11a compared with human CD11a.

Assay [3] addresses T1, human CD11a. In words: saturation binding, 125I-antibody, human lymphocytes; Kd(app). As to the method:
(§2) Radiolabeled antibodies were prepared using Iodo-Gen (Pierce, Rockford, Ill.) according to the manufacturer's instructions. 50 μg of antibody and 1 mCi¹²⁵I (DuPont, Wilmington, Del.) were added to each tube and incubated for 15 min at 25° C. Radiolabeled proteins were purified from the remaining free ¹²⁵I using PD-10 columns (Pharmacia, Uppsala, Sweden) equilibrated in Hank's Balanced Salt Solution (HBSS, Life Technologies, Grand Island, N.Y.) containing 0.2% gelatin.
(§3) Antibody affinities were determined by saturation binding using either peripheral blood mononuclear cells (murine MHM24 and HuIgG1) or rhesus leukocytes (MHM23, RhIgG1). In each assay, a radiolabeled antibody was serially diluted in HBSS-0.2% gelatin in quadruplicate. Nonspecific binding was determined by the addition of 500 nM final concentration of homologous unlabeled antibody in duplicate through the serial dilution. Human lymphocytes or rhesus leukocytes were added to the plates in a volume of 170 μl per well. Plates were incubated for 2 hr at room temperature on an orbital plate shaker. After incubation, cells were harvested using a SKATRON™ cell harvester (Lier, Norway) and washed 10 times with PBS containing 0.25% gelatin and 0.1% sodium azide. Samples were then counted for 1 min in an LBK Wallac GammaMaster gamma counter (Gaithersburg, Md.). […]

Assay [4] deals with T1, human CD11a. In words: cell-based or functional assay.
In assay [5] the target is T1, human CD11a. As to the kind of experiment: saturation binding, human lymphocytes, donor 1; Kd(app). As to the method:
as §2, §3

The target in assay [6] is T1, human CD11a. As to the kind of experiment: cell-based or functional assay. The source holds these as a separate data set.
For assay [7], the target named is T2, rhesus CD11a. As to the kind of experiment: binding to rhesus peripheral blood lymphocytes.
Assay [8] has as its target T2, rhesus CD11a. As to the kind of experiment: rhesus PBL binding.
Assay [9] deals with T1, human CD11a. In words: not stated (summary of the Example).
The target of assay [10] is T1, human CD11a. In words: saturation binding, human lymphocytes, donor 2; Kd(app). As to the method:
as §2, §3

Assay [11] has as its target T1, human CD11a. In words: FACScan, Jurkat cells. As to the method:
as §1
To determine which CDR residues were involved in binding to human CD11a an alanine-scan (Cunningham et al., Science 244:1081 (1989)) was performed on the CDR residues of HuIgG1. Each mutant was tested for binding to CD11a on Jurkat cells. In the light chain only CDR-L3 contributes to binding.
The source holds these as a separate data set.

In assay [12] the target is T1, human CD11a. In words: FACScan, Jurkat cells. The method, boiled down:
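Flow-cytometric binding to 10⁶ Jurkat T-cells with serially diluted humanized antibodies (including CDR alanine-scan mutants of HuIgG1), 45 min at 4 °C in PBS-0.1% BSA-10 mM sodium azide. Detected with fluorescein anti-human F(ab′)₂, 45 min at 4 °C; 8×10³ scatter-gated live cells acquired.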
This is another data set of the same source.

B1: humanized MHM24 IgG1 (antibody, V domains shown)
VH: EVQLVESGGGLVQPGGSLRLSCAASGYSFTGHWMNWVRQAPGKGLEWVGMIHPSDSETRYNQKFKDRFTISVDKSKNTLYLQMNSLRAEDTAVYYCARGIYFYGTTYFDYWGQGTLVTVSS
VL: DIQMTQSPSSLSASVGDRVTITCRASKTISKYLAWYQQKPGKAPKLLIYSGSTLQSGVPSRFSGSGSGTDFTLTISSLQPEDFATYYCQQHNEYPLTFGQGTKVEIKR
notes: F(ab)-8 VL and VH domains fused to human constant light and heavy (IgG1) chains; also called HuIgG1; huMHM24
For orientation: EC50 means the concentration at which the effect is half-maximal. Take B1: the “EC50 F(ab)/EC50 F(ab)-2” value in [1] was found to be 0.004 ratio. For the same molecule, the “fold reduction in binding against human CD11a” value in assay [2] was about 1000 fold. In addition, the Kd in assay [3] was found to be 0.15 nM; in [5], 0.11 nM; in [9] it was 0.2 nM; in assay [10], 0.18 nM. Moreover, in assay [4], the “IC50, blocking of cell adhesion, Jurkat: HuK” value turned out to be 0.13 nM. Moreover, the “IC50, human mixed lymphocyte response” value in [6] stood at 0.38 nM. Also, the EC50 in assay [7] was found to be 45.6 nM; in [12] it was 0.042 nM. The “Var.EC50/HuIgG1 EC50” value in assay [8] and in [11] was 1 ratio throughout.
